Test results taken from publication PMC3343102, “Dynamics of Brassinosteroid Response Modulated by Negative Regulator LIC in Rice”.

T1: MBP-OsBZR1 (Oryza sativa, UniProt Q7XI96 1-298)
T1 sequence: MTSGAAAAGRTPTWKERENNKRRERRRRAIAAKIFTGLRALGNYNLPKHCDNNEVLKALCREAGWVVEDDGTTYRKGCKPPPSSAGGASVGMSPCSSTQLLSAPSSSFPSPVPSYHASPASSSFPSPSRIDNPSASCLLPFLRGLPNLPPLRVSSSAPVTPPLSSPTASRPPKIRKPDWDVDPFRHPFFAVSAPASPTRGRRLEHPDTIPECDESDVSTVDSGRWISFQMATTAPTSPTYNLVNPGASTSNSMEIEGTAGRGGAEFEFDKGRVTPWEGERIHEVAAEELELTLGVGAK


target: T1, MBP-OsBZR1; assay: EMSA; EMSA, 20 uL: 2 ug protein; 2 uL 10x buffer (100 mM Tris, 500 mM KCl, 10 mM DTT, pH 7.5), 1 uL each of 50% glycerol, 1% NP-40, 1 M KCl, 100 mM MgCl2, 200 mM EDTA, 1 ug/uL poly(dI-dC); i.e. about 10 mM Tris, 100 mM KCl, 5 mM MgCl2, 10 mM EDTA; 25 C, 20 min; 10% native PAGE; settings: protein: recombinant; tags: MBP (N-terminal fusion, pETMALc-H); chain copies: 2; label: biotin 3' end; blunt

Binder	binding result
LIC promoter P1 (dsDNA) DNA 1: CGACGTCGTGCGGCCGCG DNA 2: CGCGGCCGCACGACGTCG	binds
LIC promoter P2 (dsDNA) DNA 1: CGGGCGCGTGTGTGGCGG DNA 2: CCGCCACACACGCGCCCG	no binding
MP1 (P1 with CGTGCG to CGAAAA) (dsDNA) DNA 1: CGACGTCGAAAAGCCGCG DNA 2: CGCGGCTTTTCGACGTCG	no binding
